B1: RSPH3 (parent)
chain: VDVQTELYLEEIADRIIEVDMECQ
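Further: lentivirally expressed fusions sorted by FACS into six bins by GFP to DsRed ratio, PSI derived from sequencing read proportions per bin multiplied by bin number.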

This data set covers variants of B1. The data set can be described thus: protein stability index of a GFP-peptide fusion (GPS, HEK-293T) (PSI 1-6); higher = more stable. Conditions: c terminus: a fixed tail appended.
In the case of VDVQTLLYLEEIADRIIEVDMECQ [E6L], the protein stability index came to 1.65.

With VDVQTALYLEEIADRIIEVDMECQ [E6A], the protein stability index stood at 1.73. In the case of VDVQTFLYLEEIADRIIEVDMECQ [E6F] it was 1.64; in that of VDVQTRLYLEEIADRIIEVDMECQ [E6R], 2.52; in that of VDVQTDLYLEEIADRIIEVDMECQ [E6D], 2.03. With VDVQTNLYLEEIADRIIEVDMECQ [E6N] the figure was 2.18.

With VDVQTWLYLEEIADRIIEVDMECQ [E6W], the protein stability index amounted to 2.21. As to VDQQTELYLEEIADRIIEVDMECQ [V3Q], the protein stability index was 3.04. With VDPQTELYLEEIADRIIEVDMECQ [V3P] the figure was 3.36; with VDMQTELYLEEIADRIIEVDMECQ [V3M], 2.26. Consider VDCQTELYLEEIADRIIEVDMECQ [V3C], for which the protein stability index stood at 2.35. As for VDWQTELYLEEIADRIIEVDMECQ [V3W], the protein stability index came out at 2.14. With VDEQTELYLEEIADRIIEVDMECQ [V3E], the protein stability index came out at 2.66. With VDHQTELYLEEIADRIIEVDMECQ [V3H] the figure was 2.4; with VDGQTELYLEEIADRIIEVDMECQ [V3G], 3.74.

Turning to VDYQTELYLEEIADRIIEVDMECQ [V3Y], the protein stability index was 1.85. In the case of VDSQTELYLEEIADRIIEVDMECQ [V3S] it was 2.56; in that of VDTQTELYLEEIADRIIEVDMECQ [V3T], 2.92. In the case of VDKQTELYLEEIADRIIEVDMECQ [V3K] it was 2.7; in that of VDDQTELYLEEIADRIIEVDMECQ [V3D], 2.66. With VDAQTELYLEEIADRIIEVDMECQ [V3A] the figure was 3.22. For the variant VDLQTELYLEEIADRIIEVDMECQ [V3L], the protein stability index was 3.01. With VDRQTELYLEEIADRIIEVDMECQ [V3R] the figure was 3.38.

VDNQTELYLEEIADRIIEVDMECQ [V3N]: the protein stability index worked out at 2.99. In the case of VSVQTELYLEEIADRIIEVDMECQ [D2S] it was 1.81. In the case of VLVQTELYLEEIADRIIEVDMECQ [D2L] it was 2.6.

On to VCVQTELYLEEIADRIIEVDMECQ [D2C], for which the protein stability index turned out to be 2.57. With VYVQTELYLEEIADRIIEVDMECQ [D2Y] the figure was 3.84; with VNVQTELYLEEIADRIIEVDMECQ [D2N], 2.17; with VEVQTELYLEEIADRIIEVDMECQ [D2E], 2.51. In the case of VGVQTELYLEEIADRIIEVDMECQ [D2G] it was 1.81.

In the case of VQVQTELYLEEIADRIIEVDMECQ [D2Q], the protein stability index worked out at 1.72. With VRVQTELYLEEIADRIIEVDMECQ [D2R] the figure was 1.76. In the case of VIVQTELYLEEIADRIIEVDMECQ [D2I], the protein stability index was found to be 2.61. In the case of VPVQTELYLEEIADRIIEVDMECQ [D2P] it was 3.08; in that of VKVQTELYLEEIADRIIEVDMECQ [D2K], 1.91; in that of VMVQTELYLEEIADRIIEVDMECQ [D2M], 3.88.

With VAVQTELYLEEIADRIIEVDMECQ [D2A], the protein stability index came to 1.63. For VTVQTELYLEEIADRIIEVDMECQ [D2T], the protein stability index amounted to 2.39. In the case of SDVQTELYLEEIADRIIEVDMECQ [V1S] it was 3.88; in that of RDVQTELYLEEIADRIIEVDMECQ [V1R], 2.57; in that of GDVQTELYLEEIADRIIEVDMECQ [V1G], 2.86. Turning to HDVQTELYLEEIADRIIEVDMECQ [V1H], the protein stability index is 3.24. With EDVQTELYLEEIADRIIEVDMECQ [V1E] the figure was 3.11. With QDVQTELYLEEIADRIIEVDMECQ [V1Q] the figure was 3.25; with WDVQTELYLEEIADRIIEVDMECQ [V1W], 2.44. In the case of LDVQTELYLEEIADRIIEVDMECQ [V1L] it was 1.72.

With MDVQTELYLEEIADRIIEVDMECQ [V1M], the protein stability index was 2.39. Take FDVQTELYLEEIADRIIEVDMECQ [V1F]: the protein stability index was 1.55.

Consider DDVQTELYLEEIADRIIEVDMECQ [V1D], for which the protein stability index was 3.3. In the case of NDVQTELYLEEIADRIIEVDMECQ [V1N] it was 3.75.

As to ADVQTELYLEEIADRIIEVDMECQ [V1A], the protein stability index is 3.1. Take KDVQTELYLEEIADRIIEVDMECQ [V1K]: the protein stability index worked out at 2.79. In the case of YDVQTELYLEEIADRIIEVDMECQ [V1Y] it was 1.94; in that of PDVQTELYLEEIADRIIEVDMECQ [V1P], 3.11. As for TDVQTELYLEEIADRIIEVDMECQ [V1T], the protein stability index was determined as 3.75. In the case of CDVQTELYLEEIADRIIEVDMECQ [V1C] it was 2.36; in that of IDVQTELYLEEIADRIIEVDMECQ [V1I], 1.64. With VDVTTELYLEEIADRIIEVDMECQ [Q4T], the protein stability index was 2.47. With VDVGTELYLEEIADRIIEVDMECQ [Q4G] the figure was 3.62; with VDVKTELYLEEIADRIIEVDMECQ [Q4K], 2.43; with VDVMTELYLEEIADRIIEVDMECQ [Q4M], 2.07. With VDVSTELYLEEIADRIIEVDMECQ [Q4S] the figure was 2.7; with VDVFTELYLEEIADRIIEVDMECQ [Q4F], 3.48; with VDVCTELYLEEIADRIIEVDMECQ [Q4C], 2.29.

Take VDVDTELYLEEIADRIIEVDMECQ [Q4D]: the protein stability index was 1.45.

Turning to VDVWTELYLEEIADRIIEVDMECQ [Q4W], the protein stability index was 2.27. In the case of VDVATELYLEEIADRIIEVDMECQ [Q4A] it was 2.19; in that of VDVVTELYLEEIADRIIEVDMECQ [Q4V], 3.19; in that of VDVETELYLEEIADRIIEVDMECQ [Q4E], 2.32.

Take VDVPTELYLEEIADRIIEVDMECQ [Q4P]: the protein stability index was found to be 2.39. For the variant VDVHTELYLEEIADRIIEVDMECQ [Q4H], the protein stability index stood at 3.22. For the variant VDVLTELYLEEIADRIIEVDMECQ [Q4L], the protein stability index amounted to 1.97.

For VDVNTELYLEEIADRIIEVDMECQ [Q4N], the protein stability index turned out to be 1.85. With VDVYTELYLEEIADRIIEVDMECQ [Q4Y] the figure was 1.66; with VDVQTERYLEEIADRIIEVDMECQ [L7R], 2.65; with VDVQTEVYLEEIADRIIEVDMECQ [L7V], 1.45. Consider VDVQTESYLEEIADRIIEVDMECQ [L7S], for which the protein stability index turned out to be 3.06. With VDVQTEIYLEEIADRIIEVDMECQ [L7I] the figure was 2.1; with VDVQTENYLEEIADRIIEVDMECQ [L7N], 3.96. With VDVQTEGYLEEIADRIIEVDMECQ [L7G] the figure was 4.11.

Turning to VDVQTEEYLEEIADRIIEVDMECQ [L7E], the protein stability index worked out at 4.3. With VDVQTECYLEEIADRIIEVDMECQ [L7C] the figure was 3.01. With VDVQTEFYLEEIADRIIEVDMECQ [L7F] the figure was 1.79; with VDVQTEWYLEEIADRIIEVDMECQ [L7W], 2.04. In the case of VDVQTEMYLEEIADRIIEVDMECQ [L7M] it was 1.73; in that of VDVQTEDYLEEIADRIIEVDMECQ [L7D], 2.71.

Turning to VDVQTEPYLEEIADRIIEVDMECQ [L7P], the protein stability index was determined as 3.07. In the case of VDVQTEQYLEEIADRIIEVDMECQ [L7Q] it was 3.41; in that of VDVQTEHYLEEIADRIIEVDMECQ [L7H], 3.38; in that of VDVQTEAYLEEIADRIIEVDMECQ [L7A], 3.2. With VDVQTETYLEEIADRIIEVDMECQ [L7T], the protein stability index stood at 3. In the case of VDVQTEYYLEEIADRIIEVDMECQ [L7Y] it was 2.34; in that of VDVQTEKYLEEIADRIIEVDMECQ [L7K], 3.96.

(Values after the supplement of paper PMC10567573.)
